Among the data in the supplement of paper PMC9732359 are protein stability index values, retold here.

The series in a line: protein stability index of a GFP-peptide fusion (yeast GPS) (PSI 1-4); higher = more stable; sorted into four equal gates, so the index is relative within each strain. The essentials:
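Mid-log yeast cultures in leucine-free medium, carrying a pooled plasmid library, were sorted into four equal gates by their GFP/Cherry fluorescence ratio. Each plasmid expressed Cherry along with GFP fused upstream of a tiled 17-residue yeast protein peptide. Plasmids recovered from each gate were PCR-amplified and Illumina-sequenced, with reads assigned to strains by barcodes. The protein stability index was obtained by summing each gate's read frequency weighted by its gate number.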

± gives the uncertainty stated by the source.

In the case of QIDHFKSMLSKPETLSI [SWI3], the protein stability index (doa10∆) amounted to 2.61 ± 0.086, the protein stability index (pdr5∆) was 2.44 ± 0.074, the protein stability index (san1∆) amounted to 2.73 ± 0.065 and the protein stability index (ubr1∆) was found to be 2.4 ± 0.048.
LKKVQQQQQAAALANAN [SWI1]: the protein stability index reads like this: (doa10∆) 1.83 ± 0.063; (pdr5∆) 2.45 ± 0.081; (san1∆) 2.1 ± 0.073; (ubr1∆) 1.78 ± 0.064.
On the same counts, the results for SRMFEEVSGSIQYKKEY [SMC1] are 3.09 ± 0.057, 2.02 ± 0.06, 2.37 ± 0.075 and 3.21 ± 0.057.
For GDDESKIPAVEYFGGES [FAS1], the protein stability index was found to be 3.17 ± 0.29 (pdr5∆) and 2.97 ± 0.2 (san1∆).
Take PLNKPLLTEELAKSGST [TAF14]: the protein stability index is, setting by setting: (doa10∆) 2.25 ± 0.068; (pdr5∆) 2.24 ± 0.064; (san1∆) 2.94 ± 0.072; (ubr1∆) 2.39 ± 0.054.
On to HFQDQKNKKIEVYTKTI [POP7], for which the protein stability index amounted to 3.19 ± 0.11 (doa10∆), 2.83 ± 0.12 (pdr5∆), 3.23 ± 0.084 (san1∆) and 2.7 ± 0.086 (ubr1∆).
For PVTLAKVIKVLGRTGSR [RPS28A], in that order: 1.96 ± 0.083, 2.59 ± 0.077, 2.09 ± 0.11 and 2.5 ± 0.13.
Take SKKETKLQENRTLLTEE [SMC2]: the protein stability index is, setting by setting: (pdr5∆) 3.23 ± 0.24; (ubr1∆) 3.08 ± 0.14.
Sequence YKYKMRYVYAHFPINVN [RPL9A] had a protein stability index (doa10∆) of 2.29 ± 0.051, a protein stability index (pdr5∆) of 2.29 ± 0.053, a protein stability index (san1∆) of 2.08 ± 0.078 and a protein stability index (ubr1∆) of 2.51 ± 0.041.
For PFDDDEPPLSYEQHIEN [PRP8], in that order: 2.42 ± 0.058, 2.86 ± 0.092, 3.06 ± 0.07 and 2.31 ± 0.053.
For MARTKQTARKSTGGKAP [HHT1], in that order: 3.31 ± 0.12, 3.25 ± 0.11, 3.04 ± 0.1 and 3.39 ± 0.092.
For LLVLLQDVIKVLYQSNA [SWP82], in that order: 1.84 ± 0.074, 2.03 ± 0.084, 1.72 ± 0.12 and 1.7 ± 0.054.
As for QAEATEWAEENADNVEW [RPS0A], the protein stability index was 2.18 ± 0.11 (doa10∆), 1.8 ± 0.11 (pdr5∆), 2.27 ± 0.083 (san1∆) and 2.41 ± 0.066 (ubr1∆).
On the same counts, the results for TCGSKGSTLNVSQMVAV [RPO31] are 3.1 ± 0.13, 2.89 ± 0.097, 2.91 ± 0.15 and 2.79 ± 0.15.
RRKTTKQNSSSDINQND [YDL088C/ASM4]: the protein stability index was found to be 3.16 ± 0.096 (doa10∆), 3.15 ± 0.098 (pdr5∆), 2.96 ± 0.083 (san1∆) and 2.95 ± 0.059 (ubr1∆).
On to IGVIQLAHYVVTAKLLG [FAS1], for which the protein stability index turned out to be 1.51 ± 0.066 (doa10∆), 1.23 ± 0.04 (pdr5∆), 1.24 ± 0.09 (san1∆) and 1.35 ± 0.053 (ubr1∆).
On the same counts, the results for IGQSEELSDKEIYTVED [ISW2] are 3.35 ± 0.13, 3.46 ± 0.14, 3.31 ± 0.17 and 3.44 ± 0.13.
For PIRINSTEEIEYIELEY [YMR129W/POM152], in that order: 2.45 ± 0.095, 3.04 ± 0.09, 2.68 ± 0.091 and 2.82 ± 0.039.
Regarding SRNFSTRDEETTKLAFL [SIR4], the protein stability index by setting is: (doa10∆) 3.04 ± 0.065; (pdr5∆) 3.09 ± 0.055; (san1∆) 3.03 ± 0.04; (ubr1∆) 2.97 ± 0.038.
As for NQLTESASHFEQYTKKI [YJL041W/NSP1], the protein stability index turned out to be 2.28 ± 0.086 (doa10∆), 2.45 ± 0.065 (pdr5∆), 2.76 ± 0.082 (san1∆) and 2.5 ± 0.095 (ubr1∆).
On the same counts, the results for KPMNKGQHKNNTSLNIN [SWP82] are 2.92 ± 0.092, 2.84 ± 0.091, 2.91 ± 0.066 and 2.98 ± 0.059.
Take AGIRPKFILALNDEGEP [RPN1]: the protein stability index reads like this: (pdr5∆) 1.9 ± 0.14; (san1∆) 2.72 ± 0.24; (ubr1∆) 1.46 ± 0.073.
Turning to WRFHTPQKYVLHPQLHE [SIN4], the protein stability index runs as follows: (doa10∆) 2.17 ± 0.071; (pdr5∆) 2.11 ± 0.069; (san1∆) 1.78 ± 0.13; (ubr1∆) 1.97 ± 0.057.
On the same counts, the results for DDFLSKKRKAGRPRGRP [SNF2] are 3.25 ± 0.3, 3.1 ± 0.12, 2.96 ± 0.2 and 2.89 ± 0.1.
For KKLDDKPSLVDVHLLES [RPN6], the protein stability index was found to be 1.1 ± 0.12 (doa10∆) and 1.29 ± 0.14 (pdr5∆).
Consider VTFSVMPPKKSWRNITN [SMC4], for which the protein stability index runs as follows: (doa10∆) 2 ± 0.11; (pdr5∆) 2.45 ± 0.15; (san1∆) 2.23 ± 0.19; (ubr1∆) 2.82 ± 0.14.
